Laboratory results: PMC4141210 (FEBS Open Bio, 2014)

B1: His–M1 (influenza virus M1 protein, wild type) (natural protein)
chain: MSLLTEVETYVLSIIPSGPLKAEIAQRLEDVFAGKNTDLEVLMEWLKTRPILSPLTKGILGFVFTLTVPSERGLQRRRFVQNALNGNGDPNNMDKAVKLYRKLKREITFHGAKEISLSYSAGALASCMGLIYNRMGAVTTEVAFGLVCATCEQIADSQHRSHRQMVTTTNPLIRHENRMVLASTTAKAMEQMAGSSEQAAEAMEVASQARQMVQAMRTIGTHPSSSAGLKNDLLENLQAYQKRMGVQMQRFK
B2: GST–NS2 (natural protein)
chain: MDPNTVSSFQDILLRMSKMQLESSSGDLNGMITQFESLKLYRDSLGEAVMRMGDLHSLQNRNEKWREQLGQKFEEIRWLIEEVRHKLKITENSFEQITFMQALHLLLEVEQEIRTFSFQLI
B3: GST–Hsc70 N384 (1–384 aa) (domain or fragment)
chain: not shown
B4: GST–Hsc70 N402 (1–402 aa) (domain or fragment)
chain: not shown

Experiments:
[1] = biological target: GST–Hsc70 wild-type (1–646 aa) (UniProt P11142 1-646); assay: pull-down
[2] = biological target: B1; assay: pull-down
[3] = biological target: B1; assay: far-Western, overlay or dot blot

GST–Hsc70 wild-type (1–646 aa), sequence (P11142 whole entry, the tested form may be a part): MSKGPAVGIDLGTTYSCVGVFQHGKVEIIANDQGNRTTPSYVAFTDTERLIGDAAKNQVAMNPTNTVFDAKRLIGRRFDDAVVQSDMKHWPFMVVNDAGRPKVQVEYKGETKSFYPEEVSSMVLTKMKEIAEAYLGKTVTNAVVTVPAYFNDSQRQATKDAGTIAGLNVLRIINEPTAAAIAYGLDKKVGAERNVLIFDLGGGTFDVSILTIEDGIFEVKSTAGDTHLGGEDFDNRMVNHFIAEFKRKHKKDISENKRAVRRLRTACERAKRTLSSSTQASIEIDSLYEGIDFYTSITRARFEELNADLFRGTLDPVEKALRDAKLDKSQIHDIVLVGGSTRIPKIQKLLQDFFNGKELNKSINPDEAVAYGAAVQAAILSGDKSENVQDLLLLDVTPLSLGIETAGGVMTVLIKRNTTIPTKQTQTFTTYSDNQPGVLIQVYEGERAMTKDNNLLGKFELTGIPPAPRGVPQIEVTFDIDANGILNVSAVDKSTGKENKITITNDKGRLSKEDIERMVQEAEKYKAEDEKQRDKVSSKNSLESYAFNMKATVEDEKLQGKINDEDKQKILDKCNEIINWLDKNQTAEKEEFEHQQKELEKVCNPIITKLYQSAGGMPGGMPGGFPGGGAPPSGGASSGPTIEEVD

Binder | relative band intensity [3] | further results
B1 |  | Kd [1]: 0.1 µM
B2 |  | Kd [2]: 6 µM
B3 | 0.26 relative (wild type = 1) | 
B4 | 0.71 relative (wild type = 1) | 
